From article PMC7593816

Columns and labels:
[1] = target: HTR2A R185A^ICL2 mutant (human) (UniProt P28223)
[2] = target: HTR2A N107A^2.37 mutant (human) (UniProt P28223)

Gαq wild-type (GαrLuc8 of the BRET2 assay) (from UniProt P50148 1-359) (natural protein)
BRET2 assay, decrease of the efficacy of 25CN-NBOH [1]: 50% | BRET2 assay, decrease of the efficacy of 25CN-NBOH [2]: 50%
